Assay [1] has as its target T1, Human FGFR3b on transfected CHO cells (human).
T1 chain: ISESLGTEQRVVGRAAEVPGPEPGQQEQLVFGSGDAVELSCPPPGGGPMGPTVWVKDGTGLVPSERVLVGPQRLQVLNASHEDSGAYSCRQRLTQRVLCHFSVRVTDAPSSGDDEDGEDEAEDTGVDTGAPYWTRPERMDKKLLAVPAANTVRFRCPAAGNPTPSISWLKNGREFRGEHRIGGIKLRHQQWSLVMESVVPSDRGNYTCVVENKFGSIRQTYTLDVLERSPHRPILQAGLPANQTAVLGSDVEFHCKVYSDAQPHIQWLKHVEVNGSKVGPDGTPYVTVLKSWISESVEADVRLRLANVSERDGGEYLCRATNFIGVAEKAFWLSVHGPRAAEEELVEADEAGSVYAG
Briefly: FACS histogram on CHO cells expressing human FGFR3b (panel title FGFR3b K.I.); concentration not given. From the text:
(§1) CHO cells (Chinese Hamster Ovary cells) were transfected to express the human FGFR3c (FIG. 16A) or human FGFR3b (FIG. 16B) on the cell surface.

The target in assay [2] is T2, hCD138 (ELISA of Table 29) (human, UniProt P18827 23-254, limits assumed).
T2 construct: also called human CD138
T2 sequence: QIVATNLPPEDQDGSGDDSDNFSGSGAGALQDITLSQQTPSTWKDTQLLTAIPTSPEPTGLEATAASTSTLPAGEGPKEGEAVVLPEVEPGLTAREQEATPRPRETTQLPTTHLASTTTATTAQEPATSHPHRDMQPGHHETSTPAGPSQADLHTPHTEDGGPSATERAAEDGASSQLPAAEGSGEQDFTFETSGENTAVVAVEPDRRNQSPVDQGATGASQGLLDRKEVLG
Description: hCD138 ELISA. (An ELISA detects its analyte on a solid surface through an enzyme-linked reagent.)

The target of assay [3] is T3, Human FGFR3c on transfected CHO cells (human, UniProt P22607 23-375).
T3 sequence: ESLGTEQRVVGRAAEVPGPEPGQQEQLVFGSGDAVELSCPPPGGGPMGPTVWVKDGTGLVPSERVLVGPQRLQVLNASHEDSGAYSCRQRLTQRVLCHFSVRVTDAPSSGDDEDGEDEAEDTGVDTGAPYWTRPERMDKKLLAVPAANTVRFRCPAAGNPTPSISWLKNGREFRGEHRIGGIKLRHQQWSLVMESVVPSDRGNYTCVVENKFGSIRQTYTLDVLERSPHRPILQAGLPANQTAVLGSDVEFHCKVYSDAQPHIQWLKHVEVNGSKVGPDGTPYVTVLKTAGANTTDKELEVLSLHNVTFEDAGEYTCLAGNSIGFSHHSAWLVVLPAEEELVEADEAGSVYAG
Briefly: FACS histogram on CHO cells expressing human FGFR3c (panel title FGFR3c K.I.); concentration not given.
Text: as §1

In assay [4] the target is T4, Mouse CD138 His (mouse, UniProt P18828 23-255).
T4 construct: also called mCD138
T4 sequence: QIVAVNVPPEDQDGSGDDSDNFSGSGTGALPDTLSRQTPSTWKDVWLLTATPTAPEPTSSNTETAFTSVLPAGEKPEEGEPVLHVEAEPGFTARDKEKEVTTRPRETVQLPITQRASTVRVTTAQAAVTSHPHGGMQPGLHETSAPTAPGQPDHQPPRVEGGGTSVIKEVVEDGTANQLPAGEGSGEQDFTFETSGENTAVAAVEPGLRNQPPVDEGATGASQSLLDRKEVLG
Briefly: SPR, summary table. On the procedure:
(§2) Murine IgGs were purified from the hybridoma supernatants and the IgGs were subject to SPR (surface plasmon resonance) for kinetic binding measurements. Human or mouse CD138 His was immobilized on a GLM chip at […] on a BioRad Proteon. […] KDs were measured using bivalent analyte fit.

Assay [5] has as its target T5, Human CD138 His (human, UniProt P18827 23-254).
T5 construct: also called hCD138
T5 sequence: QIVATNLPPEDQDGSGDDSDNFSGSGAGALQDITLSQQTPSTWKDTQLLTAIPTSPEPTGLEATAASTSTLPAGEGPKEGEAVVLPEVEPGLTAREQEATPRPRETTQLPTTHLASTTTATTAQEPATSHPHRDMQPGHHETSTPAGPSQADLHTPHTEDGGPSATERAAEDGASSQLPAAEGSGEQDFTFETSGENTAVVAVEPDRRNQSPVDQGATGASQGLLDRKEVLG
Description: SPR, summary table. On the procedure: as §2
Background: Surface plasmon resonance follows binding to a sensor surface in real time, without labels.

Assay [6] addresses T5, Human CD138 His. Briefly: SPR (BioRad Proteon), CD138 His immobilized, bivalent analyte fit. The procedure: as §2
Assay [7] concerns the target T4, Mouse CD138 His. Description: SPR (BioRad Proteon), mouse CD138 His immobilized, bivalent analyte fit. On the procedure:
as §2

Assay [8] concerns the target T6, Cynomolgus monkey CD138 on transfected Expi293 cells (cynomolgus monkey, UniProt P18827 23-310 (human entry)).
T6 construct: also called cyno CD138
T6 chain: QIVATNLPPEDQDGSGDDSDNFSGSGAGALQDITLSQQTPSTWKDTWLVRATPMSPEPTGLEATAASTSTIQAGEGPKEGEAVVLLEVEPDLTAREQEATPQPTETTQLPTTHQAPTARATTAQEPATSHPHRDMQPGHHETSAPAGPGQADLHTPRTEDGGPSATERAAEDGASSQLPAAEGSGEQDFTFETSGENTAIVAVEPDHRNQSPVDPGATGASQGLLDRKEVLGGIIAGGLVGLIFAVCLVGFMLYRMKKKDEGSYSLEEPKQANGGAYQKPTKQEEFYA
Description: FACS titration on Expi293 cells transfected with cynomolgus CD138. An excerpt: Briefly, a vector directing the cell-surface expression of human CD138 or cyno CD138 was transfected in Expi293 cells.

The target of assay [9] is T7, Mouse CD138 (ELISA binding assay, data not shown) (mouse, UniProt P18828 23-255, limits assumed).
T7 construct: Construct used in the ELISA is not described
T7 sequence: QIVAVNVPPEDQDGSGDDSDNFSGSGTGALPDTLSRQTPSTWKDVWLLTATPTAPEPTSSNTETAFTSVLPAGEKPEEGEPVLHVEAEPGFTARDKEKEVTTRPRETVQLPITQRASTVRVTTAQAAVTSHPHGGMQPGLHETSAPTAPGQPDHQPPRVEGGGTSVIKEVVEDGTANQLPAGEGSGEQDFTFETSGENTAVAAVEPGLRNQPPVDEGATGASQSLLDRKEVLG
Description: ELISA binding assay.

This note sets out measurements from patent US20220249679A1 (MITSUBISHI TANABE PHARMA, published 2022).

Several values for one entry are separate records, joined by “and”; a condition that tells them apart may be missing. Identical values can stand only once.

B1: hF6-HN-G7 (bispecific antibody, human IgG1, kappa)
heavy: not shown
light: DVVMTQTPLSLSVTPGQPASISCKSSQSLLASDGKTYLNWLLQRPGQSPKRLIYLVSKLDSGVPNRFSGSGSGTDFTLQISRVEAEDVGLYYCWQGAHFPFTFGSGTKLEIKRTVAAPSVFIFPPSDEQLKSGTASVVCLLNNFYPREAKVQWKVDNALQSGNSQESVTEQDSKDSTYSLSSTLTLSKADYEKHKVYACEVTHQGLSSPVTKSFNRGEC
notes: G7 Fynomer fused through the linker to the N-terminus of the hF6 heavy chain; IgG1/kappa
Broadly, the EC50 is the concentration that produces a half-maximal response. As to B1, the binding result in [1] and in assay [3] was “binds” throughout. A half-maximal response in assay [2] (EC50) required 0.69 nM.

B2: F12P18D4.a (antibody, V domains shown)
VH: EVQLQQSGPELVKPGASVKMSCKASGYTFADYYMKWVKQSHGKSLEWIGDINPNSGDTFYNHKFKGKATLTVDKSSSTAYMQLNSLTSEDSAVYYCARTYYDYWGQGTTLTVSS
VL: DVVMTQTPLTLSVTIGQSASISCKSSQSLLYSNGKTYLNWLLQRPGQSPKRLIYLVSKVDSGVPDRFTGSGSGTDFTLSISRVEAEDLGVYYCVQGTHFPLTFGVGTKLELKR
notes: Murine IgG purified from hybridoma supernatant
Usually koff stands for a measure of how fast the partners let go of each other. In general, kon refers to the rate constant with which the complex forms. Regarding B2, the Kd in assay [4] amounted to 672 nM; in [5] it was 29 nM; in [6] it was 28.6 nM; in assay [7] it was 672 nM. This molecule also showed a koff in assay [6] of 0.018 s⁻¹. The molecule further came in with a kon in assay [6] of 631000 M⁻¹ s⁻¹.

B3: 13P30A7 hIgG1 (antibody, V domains shown)
VH: EVQLVESGGGLVQPKGSLKLSCAASGFTFNTYAMNWVRQAPGKGLEWIARIRSKSNNYATYYADSVKDRFTISRDDSQSLLYLQMNNLKTEDTAIFYCVTDYGYVYFDAWGAGTTVTVSS
VL: NIIMTQSPKSMAMSVGERVTLSCKASENVGNYVSWYQQKPEQSPKLLIYGASYRYTGVPDRFTGSGSGTDFTLTISSVQAEDLADYHCGQSSRYPLTFGAGTKLELKR
notes: Chimeric antibody: murine variable regions of F13P30A7 with constant regions of human IgG1, kappa isotype; also called chP30A7; chP30a7
As to B3, the binding result in [8] is “binds”.

B4: F13P18D8 (antibody, V domains shown)
VH: EVQLLESGGGLVQPEGSLKLSCAASGFAFNTYAMNWVRQAPGKGLEWLARIRSKSNNYATYYADSVKDRFTISRDDSQGMLYLQMNNLKTEDTAMYYCVTDYYYVYFDVWGAGTTVTVSS
VL: NIVMTQSPKSMSMSVGERVTLSCKASENVGTYVSWYQQKSDQSPKLLIYGASNRYTGVPDRFTGSGSATDFTLTITSVQSEDLADYHCGQSSRYPLTFGAGTKLELKR
notes: as for B2
In assay [5], B4 returned a Kd of 2 nM. Moreover, the binding result in assay [9] is “no binding”. For the same molecule, in assay [6], the Kd is 1.88 nM and 1.9 nM; the koff was found to be 0.000523 s⁻¹; the kon stood at 278000 M⁻¹ s⁻¹.

B5: F13P14D3 (antibody, V domains shown)
VH: EVQLVESGGGLVQPKGSLKLSCATSGFTFNTYAMNWVRQAPGKGLEWVARIRSKSNNYATYYVDSVKDRFTISRDDSQSTVHLQMNNLKTEDTAIYYCVTDYGHVYFDVWGAGTTVTVSS
VL: NIVMTQSPKSMSMSVGQRVTLSCKASENVGSYVSWYQQKPEQSPKLLIYGASNRNTGVPDRFTGSGSATDFTLTISSVQAEDLADYHCGQSSRYPLTFGGGTKLELKR
notes: as for B2
Consider B5, for which the Kd in [5] turned out to be 10 nM. Further, the binding result in [9] was “no binding”. In assay [6], the Kd is 9.67 nM and 9.7 nM; the koff amounted to 0.00104 s⁻¹; the kon was determined as 107000 M⁻¹ s⁻¹.
